Laboratory results reported in the DeepSol protein solubility set.

Assay: soluble on expression in E. coli; label from the status in PepcDB or PDB records

Soluble on expression in E. coli, not soluble:
MANLFRNLFGHKKSHSKGDEDHENMDRDTSRRSIRAAPSSSSRSMARGARFQDDSMLPPTAAYHTQNASARVRRGPKSCPGEYIEEEAPSSSRSFNVDSFRREPRDQRRRSSNMVQSTSKMTSSSSSRAAPRYQQWETSEYGSENTSPIGYHRHYQHRRHHPEEEEDEEEDEEEVYKKSMRYQDLKKKIRAHYEERLFNYERTQRNDHRQIKELEKEKDDLVKMLLQSNAKLDKEKKKTEYFKRKWQEAEHKIPFGNPIMPQFGFPPATPQFPQMFQFQPNSGGSAQRYSFMGAPMHPISSSNTPTTSGMDTTHGGAGESLVPASDVSYLAPLVPAPPTLPLLELNTSQGPSTSGISQQNPQQSSSSFFHDDDEDQDETKNFRDEEIESPRCHGSTSTLKNDEEAAELSDFLSKSNLTTLEEGKDSGFSTTPDDAKEPEKVAAN
MGSDKIHHHHHHACKNKTGGPATASSELTDDALMDTVQRRTFLYFWEGAEPNSGLAPERYHVDGVYPQNDANVVTSGGSGFGIMAILAGIDRGYVTREEGLARMERIVSFLEKADRFHGAYPHWWYGDTGKVKPFGQKDNGGDLVETAFLMQGLLAVHQYYINGNEKEKALAARIDQIWKDVDWNWYRNGDQNVLYWHWSPTYGWEMDFPIHGYNECMIMYILAAASPTHGVPAAVYHDGWAQNGAIVSPHKVEGIELHLRYQGTEAGPLFWAQYSFLGLDPVGLKDEYCPSYFHEMRNLTLVNRAYCIRNPKHYKGFGPDCWGLTASYSVDGYAAHSPNEQDDKGVISPTAALSSIVYTPEYSMQVMRHLYNMGDTVFGPFGFYDAFSETDNWYPQRYLAIDQGPIAVMIENYRTGLLWKLFMSHPDVQAGLTKLGFNTNKQDVRQK
MHQRCNTRGGQDMGFDSRAAKKLKAMFKQQCRDAGAVCWLCGQPINYDAPPNSRDSFEPDHFYPQATHPELAEDPENLRPSHCSCNRSRKDGVPAPSLGSLSEQW
MSLLIKFESKSARVKGISFHPTRPWVLTSLHSGVIQLWDYRMCVLLEKFDEHDGPVRGICFHHDQPIFVSGGDDYKIKVWNYKQKRCIFTLLGHLDYIRTTFFHHKYPWIISASDDQTVRIWNWQSRNSIAILTGHNHYVMCAQFHPTEDLVASASLDQTVRVWDISGLRKKQMPGGGAPSRPTGGQQAELFGQPDAVVKHVLEGHDRGVNWVAFHHTNPILVSGSDDRQVKIWRYNETKAWELDSCRGHYNNVSSVIFHPNADLILSNSEDKSIRVWDMQKRTSLHVFRHENERFWVLAAHPSLNMFAAGHDNGMVVFKIQRERPAYCVSDNLVFYVKGQQIRKLDLTTNKDVALCKLRYPQPFMQPYYSLSFNPAEGTFLLTSRTHNKDLCAFELYKVASNSDGTTEAACVKSTGINALWVARNRFAVLDKAQNVSLRDLTNKELRKLENINTAVDDIFYAGTGMLLLRNDDGLQLFDVQQKIVTASVKVSKVRYVIWSKSMEFAALLSKHTLTLVNRKLEILCTQQESTRVKSGAWDDDSVFLYTTSNHIKYAINSGDCGIVRTLDLPLYILAIRGNVLYCLNRDATPVEVPIDNSDYKFKLALINKRIDEVVNMVRSANLVGQSIIGYLEKKGYPEIALHFVKDEKTRFGLAIECGNLEIALEAAKKLDEPAVWEALGETALLQGNHQIVEMSYQRTKNFEKLSFLYFVTGNTDKLVKMMKIAQARNDAHGHFQTALYTGDVEERVKVLRNCGQTSLAYLAAATHGYSAEAEELKAELESRQQPIPPVDPNARLLVPPPPVARLEENWPLLASARGTFDAQLLGLGGQSAPTNVGGVKPAAAAFAVMDDDDGDVGNEAWGDDEYLVGEDGELDVDEGEGPVDGDEEGGWDVDDDLALPDVTDDQGGDDDEEVVPNPAPAVSSEWPNVSRLAADHVAAGSFGTAIKLLHDTIGVVEAAPFKDVFVKAYAASRLSHRGWGGLGPAGPVSIHPVRNFQEDKNHLPVAAFKLSQLAKKLQKAYQMTTNGKFGDAVEKLREILLSVPLIVVSSKQEVAEAEQLITITREYLAALLLETYRKDLPKTNLEDAKRNAELAAYFTHFELQPMHRILTLRSAINTFFKMKQMKTCASLCKRLLELAPKPEVAAQIRKVLTAAEKDNTDAHQLTYDEHNPFVVCSRQFVPLYRGRPLCKCPYCGASYSEGLEGEVCNVCQVAEVGKNVLGLRISTLKS
